# Positions count from the first letter of the chain named. Numbers in names are those of the source.
# B1: TRIDENT-A (other)
# chain 1: QLVLTQSPSASASLGSSVKLTCTLSSGHKTDTIDWYQQQPGKAPRYLMKLEGSGSYNKGSGVPDRFGSGSSSGADRYLTISSLQSEDEADYYCGTDYPGNYLFGGGTQLTVLGGGGSGGGGEVQLVESGGGLVQPGGSLRLSCAASGFTFSTYAMNWVRQAPGKGLEWVGRIRSKYNNYATYYADSVKGRFTISRDDSKNSLYLQMNSLKTEDTAVYYCVRHGNFGNSYVSWFAYWGQGTLVTVSSASTKGEVAACEKEVAALEKEVAALEKEVAALEKGGGDKTHTCPPCPAPEAAGGPSVFLFPPKPKDTLMISRTPEVTCVVVDVSHEDPEVKFNWYVDGVEVHNAKTKPREEQYNSTYRVVSVLTVLHQDWLNGKEYKCKVSNKALPAPIEKTISKAKGQPREPQVYTLPPSREEMTKNQVSLWCLVKGFYPSDIAVEWESNGQPENNYKTTPPVLDSDGSFFLYSKLTVDKSRWQQGNVFSCSVMHEALHNHYTQKSLSLSPGK
# chain 2: QAVVTQEPSLTVSPGGTVTLTCRSSTGAVTTSNYANWVQQKPGQAPRGLIGGTNKRAPWTPARFSGSLLGGKAALTITGAQAEDEADYYCALWYSNLWVFGGGTKLTVLGGGGSGGGGQEQLVESGGGLVQPGGSLRLSCAASGFTFSDYYMSWVRQAPGKGLEWVATIYPSSGKTYYADSVKGRFTISSDNAKNSLYLQMNSLRAEDTAVYYCARDSYADDAALFDIWGQGTTVTVSSASTKGKVAACKEKVAALKEKVAALKEKVAALKE
# chain 3: DIQMTQSPSSLSASVGDRVTITCKGSQDINNYLAWYQQKPGKAPKLLIYNTDILHTGVPSRFSGSGSGTDFTFTISSLQPEDIATYYCYQYNNGYTFGCGTKVEIKGGGGSGGGGSGGGGSQVQLVESGGGVVQPGRSLRLSCAASGFTFSDFGMNWVRQAPGKCLEWVALIYYDGSNKFYADSVKGRFTISRDNSKNTLYLQMNSLRAEDTAVYYCAKPHYDGYYHFFDSWGQGTLVTVSSVEPKSADKTHTCPPCPAPEAAGGPSVFLFPPKPKDTLMISRTPEVTCVVVDVSHEDPEVKFNWYVDGVEVHNAKTKPREEQYNSTYRVVSVLTVLHQDWLNGKEYKCKVSNKALPAPIEKTISKAKGQPREPQVYTLPPSREEMTKNQVSLSCAVKGFYPSDIAVEWESNGQPENNYKTTPPVLDSDGSFFLVSKLTVDKSRWQQGNVFSCSVMHEALHNRYTQKSLSLSPGK
# notes: parental anti-ROR1-VL/VH, CD3 mAb 1 (D65G), TRX2 (anti-CD8) as scFv-Fc third chain
# B2: TRIDENT-D (other)
# chain 1: QLVLTQSPSASASLGSSVKLTCTLSSGHKTDTIDWYQQQPGKAPRYLMKLEGSGSYNKGSGVPDRFSGSSSGADWYLTISSLQSEDEADYYCGTDYPGNYLFGGGTQLTVLGGGGSGGGGEVQLVESGGGLVQPGGSLRLSCAASGFTFSTYAMNWVRQAPGKGLEWVGRIRSKYNNYATYYADSVKGRFTISRDDSKNSLYLQMNSLKTEDTAVYYCVRHGNFGNSYVSWFAYWGQGTLVTVSSASTKGEVAACEKEVAALEKEVAALEKEVAALEKGGGDKTHTCPPCPAPEAAGGPSVFLFPPKPKDTLMISRTPEVTCVVVDVSHEDPEVKFNWYVDGVEVHNAKTKPREEQYNSTYRVVSVLTVLHQDWLNGKEYKCKVSNKALPAPIEKTISKAKGQPREPQVYTLPPSREEMTKNQVSLWCLVKGFYPSDIAVEWESNGQPENNYKTTPPVLDSDGSFFLYSKLTVDKSRWQQGNVFSCSVMHEALHNHYTQKSLSLSPGK
# chain 2: B1 chain 2 with V155I, V182A, F186L, N195D, A215T
# heavy: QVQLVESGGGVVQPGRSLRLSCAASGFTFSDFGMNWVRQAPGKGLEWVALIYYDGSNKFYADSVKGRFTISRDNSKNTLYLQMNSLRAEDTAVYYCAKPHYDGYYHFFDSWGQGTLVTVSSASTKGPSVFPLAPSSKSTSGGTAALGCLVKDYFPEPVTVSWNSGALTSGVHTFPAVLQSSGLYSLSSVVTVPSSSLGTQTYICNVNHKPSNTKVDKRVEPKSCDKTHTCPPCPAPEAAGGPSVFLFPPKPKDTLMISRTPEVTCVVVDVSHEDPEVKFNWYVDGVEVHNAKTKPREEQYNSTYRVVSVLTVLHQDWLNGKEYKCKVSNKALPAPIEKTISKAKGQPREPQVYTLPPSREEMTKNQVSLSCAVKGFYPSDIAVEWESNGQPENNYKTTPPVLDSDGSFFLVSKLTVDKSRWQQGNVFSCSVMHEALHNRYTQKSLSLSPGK
# light: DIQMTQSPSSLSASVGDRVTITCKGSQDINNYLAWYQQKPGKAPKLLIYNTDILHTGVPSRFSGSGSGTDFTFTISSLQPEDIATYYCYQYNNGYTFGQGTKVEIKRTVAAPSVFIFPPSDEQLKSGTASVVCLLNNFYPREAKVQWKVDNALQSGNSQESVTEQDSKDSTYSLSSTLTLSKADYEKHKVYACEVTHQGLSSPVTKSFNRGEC
# B3: TRIDENT-B (other)
# chain 1: B1 chain 1
# chain 2: B1 chain 2
# heavy: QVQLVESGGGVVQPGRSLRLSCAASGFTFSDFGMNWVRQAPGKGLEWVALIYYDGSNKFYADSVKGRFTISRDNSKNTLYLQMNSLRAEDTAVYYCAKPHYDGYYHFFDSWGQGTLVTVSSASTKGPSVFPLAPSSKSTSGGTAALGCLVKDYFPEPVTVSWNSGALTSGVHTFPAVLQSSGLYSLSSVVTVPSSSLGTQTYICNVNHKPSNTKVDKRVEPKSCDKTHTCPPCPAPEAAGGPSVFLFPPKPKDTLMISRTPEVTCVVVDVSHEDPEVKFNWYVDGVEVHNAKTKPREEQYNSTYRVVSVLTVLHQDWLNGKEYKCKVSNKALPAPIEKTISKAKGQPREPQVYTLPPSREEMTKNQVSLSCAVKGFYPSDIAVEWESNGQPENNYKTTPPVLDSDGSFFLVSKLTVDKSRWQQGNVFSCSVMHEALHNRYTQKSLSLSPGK
# light: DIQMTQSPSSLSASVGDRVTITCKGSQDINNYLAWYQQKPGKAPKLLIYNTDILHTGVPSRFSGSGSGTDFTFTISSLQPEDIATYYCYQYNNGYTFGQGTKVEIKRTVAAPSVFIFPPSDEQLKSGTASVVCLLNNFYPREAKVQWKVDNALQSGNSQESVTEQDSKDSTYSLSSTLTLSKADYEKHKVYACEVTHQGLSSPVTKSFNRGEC
# notes: parental anti-ROR1-VL/VH, CD3 mAb 1 (D65G), TRX2 (anti-CD8) as Fab-type heavy and light chains
# B4: TRIDENT-C (other)
# chain 1: B2 chain 1
# chain 2: B1 chain 2 with V155I, V182A, F186L, N195D, A215T
# chain 3: B1 chain 3
# notes: anti-ROR1-VL(14) and VH(8)
# B5: DART-D (bispecific antibody)
# chain 1: B2 chain 1
# chain 2: B1 chain 2 with V155I, V182A, F186L, N195D, A215T
# chain 3: not shown
# notes: Three chain Fc Region-containing ROR1×CD3 diabody
# B6: DART-B (bispecific antibody)
# chain 1: B2 chain 1 with W75R
# chain 2: B1 chain 2
# chain 3: not shown
# notes: Three chain Fc Region-containing ROR1×CD3 diabody; VH: parental
# B7: DART-25 (bispecific antibody)
# chain 1: QLVLTQSPSASASLGSSVKLTCTLSSGHKTDTIDWYQQQPGKAPRYLMKLEGSGSYNKGSGVPDRFGSGSSSGADWYLTISSLQSEDEADYYCGTDYPGNYLFGGGTQLTVLGGGGSGGGGEVQLVESGGGLVQPGGSLRLSCAASGFTFSTYAMNWVRQAPGKGLEWVGRIRSKYNNYATYYADSVKGRFTISRDDSKNSLYLQMNSLKTEDTAVYYCVRHGNFGNSYVSWFAYWGQGTLVTVSSGGCGGGKVAALKEKVAALKEKVAALKEKVAALKE
# chain 2: QAVVTQEPSLTVSPGGTVTLTCRSSTGAVTTSNYANWVQQKPGQAPRGLIGGTNKRAPWTPARFSGSLLGGKAALTITGAQAEDEADYYCALWYSNLWVFGGGTKLTVLGGGGSGGGGQEQLVESGGGLVQPGGSLRLSCAASGFTFSDYYMSWVRQAPGKGLEWVATIYPSSGKTYYADSVKGRLTISSDNAKDSLYLQMNSLRAEDTAVYYCTRDSYADDAALFDIWGQGTTVTVSSGGCGGGEVAALEKEVAALEKEVAALEKEVAALEK
# notes: ROR1×CD3 two chain diabody
# What was measured:
# [1] = target: T1, His-tagged soluble human ROR1 (shROR1-His) (human, UniProt Q01973 30-406); assay: SPR (BIACORE), trivalent binding molecule 6.25 to 100 nM passed over immobilized shROR1-His
# T1 construct: also called ROR1 protein; immobilized ROR1; not shown: His-Tag
# T1 sequence (Q01973 30-406): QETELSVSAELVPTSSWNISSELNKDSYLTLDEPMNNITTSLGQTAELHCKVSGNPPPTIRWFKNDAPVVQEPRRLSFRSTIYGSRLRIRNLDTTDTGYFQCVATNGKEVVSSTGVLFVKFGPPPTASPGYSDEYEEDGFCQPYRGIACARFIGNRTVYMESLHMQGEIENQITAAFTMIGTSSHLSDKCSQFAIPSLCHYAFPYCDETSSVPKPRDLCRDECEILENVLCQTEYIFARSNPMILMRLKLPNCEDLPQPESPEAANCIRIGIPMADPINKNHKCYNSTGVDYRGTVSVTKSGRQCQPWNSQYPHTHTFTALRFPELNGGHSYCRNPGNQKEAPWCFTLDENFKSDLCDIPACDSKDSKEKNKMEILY
# Method: The binding kinetics of each of the ROR1×CD3×CD8 trivalent binding molecules to ROR1 was investigated using BIACORE® analysis in which each trivalent binding molecule (6.25 to 100 nM) was passed over immobilized shROR1-His essentially as described above.
# [2] = target: T2, human ROR1 expressed on the surface of cancer cells (human, UniProt Q01973 30-937); assay: cell-based or functional assay
# T2 sequence (Q01973 30-937): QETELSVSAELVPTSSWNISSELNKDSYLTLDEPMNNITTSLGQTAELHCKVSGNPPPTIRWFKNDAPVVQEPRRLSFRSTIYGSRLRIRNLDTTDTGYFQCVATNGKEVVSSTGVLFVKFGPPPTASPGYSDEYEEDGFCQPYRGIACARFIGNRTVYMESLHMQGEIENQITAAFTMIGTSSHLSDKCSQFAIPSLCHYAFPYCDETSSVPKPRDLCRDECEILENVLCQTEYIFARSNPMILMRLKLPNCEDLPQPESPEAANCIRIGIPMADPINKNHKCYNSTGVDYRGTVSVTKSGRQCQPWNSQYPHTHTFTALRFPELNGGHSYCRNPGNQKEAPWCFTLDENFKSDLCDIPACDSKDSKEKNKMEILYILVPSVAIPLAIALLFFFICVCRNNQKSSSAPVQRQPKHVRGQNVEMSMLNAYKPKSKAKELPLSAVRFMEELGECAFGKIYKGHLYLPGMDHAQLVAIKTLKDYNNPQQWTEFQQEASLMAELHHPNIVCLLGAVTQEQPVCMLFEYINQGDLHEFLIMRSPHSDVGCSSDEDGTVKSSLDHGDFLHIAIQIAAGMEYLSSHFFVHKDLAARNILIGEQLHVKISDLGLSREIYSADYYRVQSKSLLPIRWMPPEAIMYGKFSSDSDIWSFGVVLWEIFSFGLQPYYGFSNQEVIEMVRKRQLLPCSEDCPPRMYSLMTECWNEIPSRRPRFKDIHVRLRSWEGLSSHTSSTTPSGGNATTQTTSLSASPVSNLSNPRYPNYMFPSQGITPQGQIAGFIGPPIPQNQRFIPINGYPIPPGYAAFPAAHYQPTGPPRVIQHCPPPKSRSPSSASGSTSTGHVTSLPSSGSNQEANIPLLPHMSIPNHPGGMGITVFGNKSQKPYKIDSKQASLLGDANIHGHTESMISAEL
# [3] = target: T1, His-tagged soluble human ROR1 …; assay: sandwich ELISA: plate coated with shROR1-His, serial dilutions of diabody, bound diabody detected with biotinylated CD3 and streptavidin-HRP; y axis 'Mean Value'
# Method: The ability of the bispecific ROR1×CD3 two and three chain diabodies DART-1 and DART-A to bind both ROR1 and CD3 was examined by a sandwich ELISA. Briefly, microtiter plates were coated with shROR1-His, the plates were washed and incubated with three-fold serial dilutions of DART-1 or DART-A. The amount of diabody binding to the immobilized ROR1 was assessed using a biotinylated CD3 detected with Streptavidin-HRP. All samples were analyzed on a plate reader and binding curves generated. […] The cells were washed twice incubated with biotin-conjugated mouse anti-EK-coil antibody that recognizes the E-coil/K-coil (EK) heterodimerization region (100 μL of 1 μg/mL mixed with 1:500 diluted streptavidin-phycoerythrin) for 45 min. The cells were then washed and resuspended with FACS buffer, and analyzed with a BD FCS Canto II flow cytometer using FlowJo v10 software.
# [4] = target: T1, His-tagged soluble human ROR1 …; assay: SPR (Biacore), shROR1-His captured on anti-PentaHis surface, diabody 6.25-100 nM as analyte
# Method: The binding affinity of DART-1, DART-A, DART-B, and DART-C was investigated using Biacore analysis in which each diabody construct was passed over immobilized ROR1. Briefly, shROR1-His was captured on immobilized anti-PentaHis surface and was incubated with DART-1, DART-A, DART-B or DART-C at 6.25-100 nM, and the kinetics of binding was determined via Biacore analysis.
# [5] = target: T1, His-tagged soluble human ROR1 …; assay: SPR (Biacore), diabody captured via anti-E/K-coil, shROR1-His as analyte
# Method: The binding kinetics of DART-1 to DART-6, DART-10 to DART-17, DART-20 to DART-33 was investigated using Biacore analysis in which ROR1 protein was passed over immobilized diabodies. Briefly, each diabody construct was captured on immobilized anti-E/K-coil surface and was incubated with shROR1-His at 25 and 100 nM, and the kinetics of binding were determined via Biacore analysis.
# [6] = target: T2, human ROR1 expressed on the surface of …; assay: cell-based or functional assay; remark: listed apart in the source
binder,measurement,setting,value
B1,Kd,[1],1.3 nM
same,"EC50 nM, redirected cell killing of Calu-3 cells by pan T-cells (LDH release)",[2],0.0027 nM
same,"EC50 nM, redirected cell killing of JIMT-1 cells by pan T-cells (LDH release)",[2],0.0022 nM
same,"EC50 nM, redirected cell killing of NCI-H1975 cells by pan T-cells (LDH release)",[2],0.0039 nM
B2,Kd,[1],0.26 nM
B3,Kd,[1],1.6 nM
same,"EC50 nM, redirected cell killing of Calu-3 cells by pan T-cells (LDH release)",[2],0.0044 nM
same,"EC50 nM, redirected cell killing of JIMT-1 cells by pan T-cells (LDH release)",[2],0.0052 nM
same,"EC50 nM, redirected cell killing of NCI-H1975 cells by pan T-cells (LDH release)",[2],0.0153 nM
B4,Kd,[1],0.19 nM
B5,EC50 (read off the curve),[3],~1 nM
B6,Kd,[4],0.65 nM
B7,Kd,[5],1.2 nM
same,"MR(%) (maximum response), redirected cell killing of HBL-2 cells (LDH release)",[6],27%
same,"MR(%) (maximum response), redirected cell killing of JIMT-1 cells (LDH release)",[6],40%
same,"MR(%) (maximum response), redirected cell killing of Jeko-1 cells (LDH release)",[6],38.2%

# Reference: patent publication US20170233472A1 (MacroGenics, published 2017)
